Data as given in publication PMC3495302, “The putative K^+ channel subunit AtKCO3 forms stable dimers in Arabidopsis” (Frontiers in Plant Science, 2012).

Biological target: the molecule itself
Assay: velocity sucrose gradient centrifugation; leaf homogenate in 200 mM NaCl, 0.2% Triton X-100, 50 mM Tris-Cl pH 7.8; linear 5-25% sucrose gradient with 150 mM NaCl, 0.1% Triton X-100, 200,000 x g, 25 h, 4°C; fractions by SDS-PAGE and western blot; mass markers in a further gradient

Protein | stoichiometry N
AtKCO3::GFP (natural protein, Arabidopsis thaliana, UniProt Q9XFR0 1-260, looked up, AtKCO3 of Arabidopsis thaliana, locus AT5G46360; fusion of about 60 kDa; Made with pBI-35S-10H-GFP-JFH1 (Hong et al., 1999); the vector's name may mean further tag residues (surmise); source: transgenic Arabidopsis (CaMV 35S promoter, p35S-KCO3::GFP), in leaf homogenate; not shown: GFP, C-terminal, kept) MPMTPSEFKNRLLFGSLPRSSSDPTDLQFTEPNVPPSLFSLPEHNDDTATDMAPDQETEQSVSKSIARQALALLVVYLSLGVLIYWLTLDSDNAYQTHPVAVALYFFVVTFCGFLIVHFVVKIGWLDSFCFSVMMVTTVGFGDRAFNTWLGTFLAAVWLLVSTLAVARAFLFLADARADKRNRERAKKVLGESISISQFFAADIDNDGRLSLAEFAIYKLKQMEKITQEDFIQICNQFDKLDRTQSGRITLVDLTTATSV | 2
AtKCO3 (natural protein, Arabidopsis thaliana, UniProt Q9XFR0 1-260, looked up, AtKCO3, putative one-pore K+ channel subunit of Arabidopsis thaliana, locus AT5G46360; cDNA from seedlings of ecotype C24; calculated mass 29 kDa; The AtKCO3 cDNA without tag was put into pBinAR-Kan; also called wild-type protein; source: transgenic Arabidopsis (CaMV 35S promoter, p35S-KCO3), in leaf homogenate) MPMTPSEFKNRLLFGSLPRSSSDPTDLQFTEPNVPPSLFSLPEHNDDTATDMAPDQETEQSVSKSIARQALALLVVYLSLGVLIYWLTLDSDNAYQTHPVAVALYFFVVTFCGFLIVHFVVKIGWLDSFCFSVMMVTTVGFGDRAFNTWLGTFLAAVWLLVSTLAVARAFLFLADARADKRNRERAKKVLGESISISQFFAADIDNDGRLSLAEFAIYKLKQMEKITQEDFIQICNQFDKLDRTQSGRITLVDLTTATSV | 2
γTIP (natural protein, UniProt P25818 1-251, looked up, gamma-TIP, tonoplast aquaporin of Arabidopsis; detected with an antibody against its C-terminal nine amino acids; also called tonoplast aquaporin γTIP; source: endogenous, Arabidopsis leaf homogenate or microsomes) MPIRNIAIGRPDEATRPDALKAALAEFISTLIFVVAGSGSGMAFNKLTENGATTPSGLVAAAVAHAFGLFVAVSVGANISGGHVNPAVTFGAFIGGNITLLRGILYWIAQLLGSVVACLILKFATGGLAVPAFGLSAGVGVLNAFVFEIVMTFGLVYTVYATAIDPKNGSLGTIAPIAIGFIVGANILAGGAFSGASMNPAVAFGPAVVSWTWTNHWVYWAGPLVGGGIAGLIYEVFFINTTHEQLPTTDY | 4
